Patent US20180155451A1 (published 2018)
Residue numbers refer to the chain shown, from its start.

T1: FcγRIIa R type extracellular domain with C-terminal His tag (human, UniProt P12318 34-217)
T1 construct: extracellular domain; also called FcgRIIa R; FcgRIIaR; not shown: His tag at the C terminus
T1 sequence (looked up): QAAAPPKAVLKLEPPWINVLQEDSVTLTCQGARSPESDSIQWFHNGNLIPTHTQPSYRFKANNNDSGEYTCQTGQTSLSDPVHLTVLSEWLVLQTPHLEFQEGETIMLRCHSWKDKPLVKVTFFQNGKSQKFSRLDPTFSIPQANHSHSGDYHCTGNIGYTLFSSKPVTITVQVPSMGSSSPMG

T2: FcγRIIa H type extracellular domain with C-terminal His tag (human, UniProt P12318 34-217)
T2 construct: extracellular domain; also called FcgRIIa H; FcgRIIaH; not shown: His tag at the C terminus
T2 sequence (looked up): T1 sequence (looked up) with R134H

T3: FcγRIIb extracellular domain with C-terminal His tag (human, UniProt P31994 43-217)
T3 construct: extracellular domain; also called FcgRIIb; 2b; not shown: His tag at the C terminus
T3 sequence (looked up): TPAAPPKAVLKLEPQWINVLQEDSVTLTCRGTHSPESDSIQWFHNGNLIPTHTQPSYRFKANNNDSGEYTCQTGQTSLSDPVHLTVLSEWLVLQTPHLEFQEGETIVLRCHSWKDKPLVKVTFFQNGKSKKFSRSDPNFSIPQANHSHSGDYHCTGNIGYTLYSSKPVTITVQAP

B1: H240-FA009/H240-FB016/L73-k0 (antibody, human IgG1, kappa)
heavy 1: QDQLVQSGAEVKKPGASVKVSCKASGFNIKDTYIQWVRQAPGQGLEWMGRIDPLRKQTKYREKFEGRVTITADTSTNTAYMELSSLRSEDTAVYYCVRSGREFDYWGQGTLVTVSSASTKGPSVFPLAPSSKSTSGGTAALGCLVKDYFPEPVTVSWNSGALTSGVHTFPAVLQSSGLYSLSSVVTVPSSSLGTKTYICNVNHKPSNTKVDKKVEPKSCDKTHTCPPCPAPEYYWGPSVFLFPPKPKDTLMISRTPEVTCVVVDVSDEEPEVKFNWYVDGVEVHNAKTKPREEQYNATYRVVSVLTVLHQDWLNGKEYKCKVSNKALPAPIEKTISKAKGQPREPQVYTLPPSRKEMTKNQVSLTCLVKGFYPSDIAVEWESNGQPENNYKTTPPVLDSDGSFFLYSKLTVDKSRWQQGNVFSCSVMHEALHNRYTQKSLSLSP
heavy 2: QDQLVQSGAEVKKPGASVKVSCKASGFNIKDTYIQWVRQAPGQGLEWMGRIDPLRKQTKYREKFEGRVTITADTSTNTAYMELSSLRSEDTAVYYCVRSGREFDYWGQGTLVTVSSASTKGPSVFPLAPSSKSTSGGTAALGCLVKDYFPEPVTVSWNSGALTSGVHTFPAVLQSSGLYSLSSVVTVPSSSLGTQTYICNVDHKPSNTKVDKKVEPKSCDKTHTCPPCPAPELLGGPSVFLFPPKPKDTLMISRTPEVTCVVVDVSHEEPEVQFNWYVDGVEVHNAKTKPREEQYNSTYRVVSVLTVLHQDWLNGKEYKCKVSNDALPMPIEETISKAKGQPREPQVYTLPPSREEMTKNQVSLTCLVKGFYPSDIAVEWESNGQPENNYKTTPPVLDSDGSFFLYSKLTVDKSRWQQGNVFSCSVMHEALHNHYTQESLSLSP
light: DIQMTQSPSSLSASVGDRVTITCRASQDIHKYIAWYQQKPGQAPRLLIQYTSTLQPGVPSRFSGSGSGTDYTFTISSLQPEDIATYYCLQYEQLRTFGGGTKVEIKRTVAAPSVFIFPPSDEQLKSGTASVVCLLNNFYPREAKVQWKVDNALQSGNSQESVTEQDSKDSTYSLSSTLTLSKADYEKHKVYACEVTHQGLSSPVTKSFNRGEC
notes: Heterodimerized anti-EREG IgG1 antibody; A chain altered from H240-AK072, B chain altered from H240-BH076
B2: H240-FA009/H240-FB021/L73-k0 (antibody, human IgG1, kappa)
heavy 1: B1 heavy 1
heavy 2: B1 heavy 2 with D202N, K287E
light: B1 light
notes: as for B1
B3: H240-FA009/H240-FB047/L73-k0 (antibody, human IgG1, kappa)
heavy 1: B1 heavy 1
heavy 2: B1 heavy 2 with D202N, N383E
light: B1 light
notes: as for B1
B4: H240-FA009/H240-FB052/L73-k0 (antibody, human IgG1, kappa)
heavy 1: B1 heavy 1
heavy 2: B1 heavy 2 with D202N, K213T
light: B1 light
notes: as for B1
B5: H240-FA009/H240-FB020/L73-k0 (antibody, human IgG1, kappa)
heavy 1: B1 heavy 1
heavy 2: B1 heavy 2 with K146E, D202N
light: B1 light
notes: as for B1
B6: H240-FA024/H240-FB001/L73-k0 (antibody, human IgG1, kappa)
heavy 1: B1 heavy 1 with I198T, E271K, M357K
heavy 2: B1 heavy 2 with D202N
light: B1 light
notes: as for B1
B7: H240-FA009/H240-FB033/L73-k0 (antibody, human IgG1, kappa)
heavy 1: B1 heavy 1
heavy 2: B1 heavy 2 with G137E, D202N
light: B1 light
notes: as for B1
B8: H240-FA009/H240-FB017/L73-k0 (antibody, human IgG1, kappa)
heavy 1: B1 heavy 1
heavy 2: B1 heavy 2 with G136E
light: B1 light
notes: as for B1
B9: H240-FA030/H240-FB001/L73-k0 (antibody, human IgG1, kappa)
heavy 1: B1 heavy 1 with I198T, E271K
heavy 2: B1 heavy 2 with D202N
light: B1 light
notes: as for B1
B10: H240-FA012/H240-FB001/L73-k0 (antibody, human IgG1, kappa)
heavy 1: B1 heavy 1 with E271K
heavy 2: B1 heavy 2 with D202N
light: B1 light
notes: as for B1

target: T4, FcγRIa extracellular domain with C-terminal His tag (human, UniProt P12314 16-292); test: SPR (Biacore), antibody captured on chip, soluble FcgR as analyte; experiment 2
T4 construct: extracellular domain; also called FcgRI; FcgRIa; not shown: His tag at the C terminus
T4 sequence (P12314 16-292): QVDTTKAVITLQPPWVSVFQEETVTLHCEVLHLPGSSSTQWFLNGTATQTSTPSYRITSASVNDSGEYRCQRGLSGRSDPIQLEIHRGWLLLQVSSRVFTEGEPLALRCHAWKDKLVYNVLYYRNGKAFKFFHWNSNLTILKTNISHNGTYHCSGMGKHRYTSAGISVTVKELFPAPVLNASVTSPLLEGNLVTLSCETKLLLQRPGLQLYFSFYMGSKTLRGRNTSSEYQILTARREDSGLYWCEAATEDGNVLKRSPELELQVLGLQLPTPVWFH
Protocol: (§1) Antibodies of interest were analyzed for the interaction to FcgR according to the method described in Reference Example 8.
(§2) Analysis of interaction between obj ective antibody and the FcγR was carried out using Biacore T100 (GE Healthcare), Biacore T200, Biacore A100, and Biacore 4000. HBS-EP+ (GE Healthcare) was used as the running buffer, and the measurement temperature was set to 25° C. Chips produced by immobilizing the antigen peptide by the amine coupling method to a Series S sensor Chip CM5 (GE Healthcare), chips produced by allowing preliminarily biotinylated antigen peptides to interact with and immobilize onto a Series S Sensor Chip SA (certified) (GE Healthcare), chips produced by immobilizing Protein L (ACTIGEN, BioVision) to Series S Sencor Chip CM5 (GE Healthcare), or chips produced by immobilizing Protein A/G (Thermo Scientific) to Series S Sencor Chip CM5 (GE Healthcare) were used. Antibodies of interest were captured onto these chips, and allowed to interact to each FcγR diluted with running buffer. To regenerate and repeatedly use the chip, the antibodies captured onto the chip were washed off by reacting 10 mM glycine-HCl, pH 1.5.

Kd	Binder
0.13 nM	B1
0.051 nM	B2
0.05 nM	B3
0.051 nM	B4
0.12 nM	B5
1.8 nM	B6
0.12 nM	B7
0.11 nM	B8
0.036 nM	B9
0.076 nM	B10

target: T1, FcγRIIa R type extracellular domain …; test: as above
Protocol: as §1, §2

Kd	Binder
250 nM	B1
280 nM	B2
270 nM	B3
270 nM	B4
250 nM	B5
370 nM	B6
310 nM	B7
230 nM	B8
440 nM	B9
350 nM	B10

target: T2, FcγRIIa H type extracellular domain …; test: as above
Protocol: as §1, §2

Kd	Binder
70 nM	B1
70 nM	B2
74 nM	B3
72 nM	B4
64 nM	B5
110 nM	B6
80 nM	B7
61 nM	B8
120 nM	B9
110 nM	B10

target: T3, FcγRIIb extracellular domain with …; test: as above
Protocol: as §1, §2

Kd	Binder
1400 nM	B1
2200 nM	B2
1700 nM	B3
1400 nM	B4
1400 nM	B5
2000 nM	B6
1600 nM	B7
1400 nM	B8
3300 nM	B9
1700 nM	B10

target: T5, FcγRIIIa F type extracellular domain with C-terminal His tag (human, UniProt P08637 17-208); test: as above
T5 construct: extracellular domain; also called FcgRIIIa F; FcgRIIIaF; not shown: His tag at the C terminus
T5 sequence (P08637 17-208): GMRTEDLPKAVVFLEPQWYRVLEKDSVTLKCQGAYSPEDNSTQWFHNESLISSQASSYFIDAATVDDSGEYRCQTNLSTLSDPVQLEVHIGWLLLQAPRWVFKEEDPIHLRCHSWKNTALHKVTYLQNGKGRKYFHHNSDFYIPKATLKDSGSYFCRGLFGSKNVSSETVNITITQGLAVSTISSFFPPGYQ
Protocol: as §1, §2

Kd	Binder
4.4 nM	B1
3.7 nM	B2
4.4 nM	B3
4.3 nM	B4
3.9 nM	B5
6.7 nM	B6
3.4 nM	B7
3 nM	B8
6.4 nM	B9
6.3 nM	B10

target: T6, FcγRIIIa V type extracellular domain with C-terminal His tag (human, UniProt P08637 17-208); test: as above
T6 construct: extracellular domain; also called FcgRIIIa V; FcgRIIIaV; not shown: His tag at the C terminus
T6 sequence (P08637 17-208 F176V): as the sequence (P08637 17-208) above, with F160V counted along it
Protocol: as §1, §2

Kd	Binder
1 nM	B1
0.78 nM	B2
1.1 nM	B3
0.89 nM	B4
1.1 nM	B5
1.9 nM	B6
1 nM	B7
0.84 nM	B8
1.7 nM	B9
1.5 nM	B10
